Assay results reported in PMC11251093 (iScience, 2024).

Target: SARS-CoV S-6P (SARS-CoV, strain , UniProt P59594, stabilised)
Experiment: SPR

B1: 6D6 (antibody, V domains shown)
VH: EVQLQQSGAELVKPGASVKLSCTTSGFNIIDTYMHWVKQRPEEGLEWIGGIDPVNGNSEYDPKFQDKATITADTSSNTAYLHLSRLTSEDTAVYYCASAHYYGSSSSFPYWGQGTDLVTVS
VL: DIVMTQSQKFMSTSVGDRVSVTCKASQNVGTHVAWYQQKPGQSPKALIYSASYRYSGVPDRFTGSGVGTDFTLTITNVQSEDLAEYFCQQYNSYFTFGSGTKLEIK
B1: binds.
